Measured values taken from patent publication US9957295B2, “Peptides inhibiting cold-inducible RNA binding protein activity” (The Feinstein Institute for Medical Research, priority 2013, dated 2018).

T1: MD2 (Homo sapiens, UniProt Q9Y6Y9)
T1 sequence (Q9Y6Y9 19-160): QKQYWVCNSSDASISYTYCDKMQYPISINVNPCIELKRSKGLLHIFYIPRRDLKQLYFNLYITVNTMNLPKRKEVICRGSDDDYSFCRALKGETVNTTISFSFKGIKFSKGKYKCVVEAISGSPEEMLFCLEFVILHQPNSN

T2: rhMD2 (Homo sapiens, UniProt Q9Y6Y9)
T2 construct: Glu17-Asn160); 10-His (C); purchased R&D Systems; host or cells: E. coli
T2 sequence (Q9Y6Y9 17-160): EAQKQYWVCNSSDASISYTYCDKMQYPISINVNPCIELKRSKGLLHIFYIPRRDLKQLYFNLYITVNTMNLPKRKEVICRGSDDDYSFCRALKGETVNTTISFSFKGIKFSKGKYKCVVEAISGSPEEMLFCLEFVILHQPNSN


What was measured:
TLR4/MD2 complex = TLR4/MD2 complex (Homo sapiens, UniProt O00206+Q9Y6Y9); details: SPR, literature; read-out: KD, binding to TLR4/MD2 complex; cited from earlier work
MD2 = target: T1, MD2; details: literature; read-out: KD, binding to MD2; cited from earlier work
TLR4 = TLR4 (Homo sapiens, UniProt O00206); details: literature; cited from earlier work
rhMD2 = target: T2, rhMD2; assay: SPR binding to immobilized rhMD2; details: kinetic analysis, 25° C., read-out: apparent KD, binding to rhMD2
Description: (§1) Analysis of protein-protein and peptide-protein interactions were conducted using the BIAcore T200 instrument (GE Healthcare). Binding reactions were performed in 1×PBS buffer containing 0.01% Tween-20 (pH 7.4). The CM5 dextran chip (flow cell-2) was first activated by injection with 89 μl of 0.1 M […] and 0.1 M N-hydroxysuccinimide. An aliquot of 200 μl of 5 μg/ml of the ligand diluted in 10 mM sodium acetate (pH 4.5) was injected into flow cell-2 of the CM5 chip for immobilization. Next, 135 μl of 1 M ethanolamine (pH 8.2) was then injected to block the remaining active sites. The flow cell-1 without coating with the ligand was used as a control to evaluate nonspecific binding. The binding analyses were performed at flow rate of 30 μl/min at 25° C. To evaluate the binding, the analyte (ranging from 62.5 nM to 1.0 μM for kinetics analysis or 0.5 μM for yes/no binding analysis) was injected into flow cell-1 and -2 and the association of analyte and ligand was recorded respectively by surface plasmon resonance. The signal from the blank channel (flow cell-1) was subtracted from the channel (flow-cell 2) coated with the ligand. Data were analyzed by the BIAcore T200 Evaluation Software. For all samples, a blank injection with buffer alone was subtracted from the resulting reaction surface data. Data were globally fitted to the Lagmuir model for a 1:1 binding.
Surface plasmon resonance (SPR) analysis was utilized to determine the physical interaction and binding affinity between rhCIRP and pattern-recognition receptors and MD2. […] The sensorgrams show association and dissociation of analyte at the indicated concentration passed over to the immobilized ligand on the sensor chip, indicated as analyte/ligand on top of each diagram. […] The region of CIRP that binds to MD2 was determined via the synthesis of 32 oligopeptides (15-mer) covering the entire human CIRP sequence. The oligopeptides were passed over immobilized rhMD2 on the BIAcore instrument, followed by subsequent performance of a series of SPR analyses. Three oligopeptides with high binding affinity were indicated. […] Three oligopeptides, aa 101-115, 106-120 (C22), and 111-125 (C23) bound to rhMD2 with high affinity (FIG. 14 and FIG. 19).

RAGE = target: T3, RAGE (Homo sapiens, UniProt Q15109); assay: SPR binding to RAGE
T3 construct: Ala23-Ala344); 6-His (C); purchased Biovision; host or cells: human HEK293 cells
Description: as §1, with “The binding analyses were performed at flow rate of 30 μl/min at 25° C.” left out, “The signal from the blank channel (flow cell-1) was subtracted from the channel (flow-cell 2) coated with the ligand.” left out, “For all samples, a blank injection with buffer alone was subtracted from the resulting reaction surface data. Data were globally fitted to the Lagmuir model for a 1:1 binding.” left out
(§2) Surface plasmon resonance (SPR) analysis was utilized to determine the physical interaction and binding affinity between rhCIRP and pattern-recognition receptors and MD2. […] The region of CIRP that binds to MD2 was determined via the synthesis of 32 oligopeptides (15-mer) covering the entire human CIRP sequence. […]

TLR2 = target: T4, TLR2 (Homo sapiens, UniProt O60603); assay: SPR binding to TLR2
T4 construct: Glu21-Leu590); 10-His (C); purchased R&D Systems; host or cells: mouse myeloma NS0 cell line
Description: as §1, with “The binding analyses were performed at flow rate of 30 μl/min at 25° C.” left out, “The signal from the blank channel (flow cell-1) was subtracted from the channel (flow-cell 2) coated with the ligand.” left out, “For all samples, a blank injection with buffer alone was subtracted from the resulting reaction surface data. Data were globally fitted to the Lagmuir model for a 1:1 binding.” left out
as §2

THP-1 cells = assay: TNF-α release from differentiated THP-1 cells stimulated with recombinant proteins; type: cell-based, human; details: 4 h
Description: As with the murine model, the stimulation of TNF-α, release by rCIRP in a human model was studied. […] These experiments were conducted by incubating differentiated human THP-1 cells with rhCIRP or rmCIRP at the indicated concentrations for 4 h. *P<0.05 vs. no CIRP. Similarly, human PBMC were incubated with the indicated concentrations of rhCIRP for 8 h. *P<0.05 vs. no rhCIRP. Thus, stimulation of cytokine release by CIRP was not attributable to LPS contamination. Furthermore, CIRP-induced cytokine activation was conserved between rodents and humans.
rmCIRP induced TNF-α and HMGB1 release in macrophages (FIGS. 10a, b and c). It was reported that HMGB1 can also stimulate TNF-α release (Andersson, U., et al. High mobility group 1 protein (HMG-1) stimulates proinflammatory cytokine synthesis in human monocytes. J. Exp. Med. 192, 565-570 (2000)). The relationship between CIRP and HMGB1 on stimulating TNF-α release was analyzed by applying respective neutralizing antibodies. […] After 4 h, TNF-α levels in conditioned medium (CM) were assayed by ELISA. Data are mean±s.e.m. from three independent experiments. *P<0.05 vs. rmCIRP+ control IgG. In FIG. 16D, RAW 264.7 cells were pre-incubated with rabbit control IgG or anti-CIRP antibodies at indicated dilutions of 1 mg/ml for 20 min before adding 1.0 μg/ml rmCIRP. After 4 h, TNF-α levels in CM were assayed by ELISA. Data are mean±s.e.m. from three independent experiments. *P<0.05 vs. rmCIRP+ control IgG. THP-1 cells were incubated with 4 μg/ml of anti-CIRP antibodies, anti-HMGB1 antibodies, or non-immunized control IgG for 1 h prior to adding rmCIRP (0.3 μg/ml), rmHMGB1 (0.3 μg/ml), or rmCIRP/rmHMGB1 (0.3 μg/ml, 0.3 μg/ml) for 8 h. *P<0.05 vs. rmCIRP; #P<0.05 vs. rmHMGB1. […] Furthermore, rmCIRP, rmHMGB1, and rmCIRP plus rmHMGB1 induced TNF-α levels of 0.8, 0.6, and 1.6 ng/ml, respectively. […] TNF-α levels in all collected CM were assayed by ELISA. Data are mean±s.e.m. from three or four independent experiments.
Murine macrophage-like RAW 264.7 cells and human monocyte THP-1 cells were obtained from ATCC (Manassas, Va.). […]

Sequence of TLR4/MD2 complex (O00206 24-631 limits assumed, one chain of several): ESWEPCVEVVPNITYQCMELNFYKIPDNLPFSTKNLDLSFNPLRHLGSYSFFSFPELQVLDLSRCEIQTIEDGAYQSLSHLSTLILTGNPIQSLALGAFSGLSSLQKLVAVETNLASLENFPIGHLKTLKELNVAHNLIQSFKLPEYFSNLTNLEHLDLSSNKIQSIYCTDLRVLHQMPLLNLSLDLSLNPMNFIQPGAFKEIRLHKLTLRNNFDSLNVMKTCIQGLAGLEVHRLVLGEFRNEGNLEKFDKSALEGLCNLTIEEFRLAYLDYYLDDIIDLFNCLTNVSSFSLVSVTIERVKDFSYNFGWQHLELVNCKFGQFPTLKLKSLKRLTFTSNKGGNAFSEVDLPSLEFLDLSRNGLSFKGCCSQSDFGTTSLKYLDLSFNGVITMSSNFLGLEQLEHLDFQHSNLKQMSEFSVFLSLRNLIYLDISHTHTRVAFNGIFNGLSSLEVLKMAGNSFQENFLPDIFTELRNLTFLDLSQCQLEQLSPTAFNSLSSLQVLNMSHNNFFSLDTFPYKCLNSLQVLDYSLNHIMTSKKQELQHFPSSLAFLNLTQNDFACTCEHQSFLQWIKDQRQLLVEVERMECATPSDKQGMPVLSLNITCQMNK
Sequence of TLR4 (O00206 24-631 limits assumed, species assumed): as the sequence (O00206 24-631 limits assumed, one chain of several) above
T3 sequence (Q15109 23-344): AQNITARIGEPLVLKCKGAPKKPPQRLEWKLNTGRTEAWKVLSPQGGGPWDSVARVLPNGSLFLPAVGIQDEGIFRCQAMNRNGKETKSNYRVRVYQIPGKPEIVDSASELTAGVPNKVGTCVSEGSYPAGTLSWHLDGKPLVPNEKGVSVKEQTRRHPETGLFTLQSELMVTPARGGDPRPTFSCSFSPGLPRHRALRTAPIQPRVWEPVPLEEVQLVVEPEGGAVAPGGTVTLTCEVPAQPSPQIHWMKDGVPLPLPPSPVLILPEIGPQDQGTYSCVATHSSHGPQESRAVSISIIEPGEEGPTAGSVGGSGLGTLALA
T4 sequence (O60603 21-590): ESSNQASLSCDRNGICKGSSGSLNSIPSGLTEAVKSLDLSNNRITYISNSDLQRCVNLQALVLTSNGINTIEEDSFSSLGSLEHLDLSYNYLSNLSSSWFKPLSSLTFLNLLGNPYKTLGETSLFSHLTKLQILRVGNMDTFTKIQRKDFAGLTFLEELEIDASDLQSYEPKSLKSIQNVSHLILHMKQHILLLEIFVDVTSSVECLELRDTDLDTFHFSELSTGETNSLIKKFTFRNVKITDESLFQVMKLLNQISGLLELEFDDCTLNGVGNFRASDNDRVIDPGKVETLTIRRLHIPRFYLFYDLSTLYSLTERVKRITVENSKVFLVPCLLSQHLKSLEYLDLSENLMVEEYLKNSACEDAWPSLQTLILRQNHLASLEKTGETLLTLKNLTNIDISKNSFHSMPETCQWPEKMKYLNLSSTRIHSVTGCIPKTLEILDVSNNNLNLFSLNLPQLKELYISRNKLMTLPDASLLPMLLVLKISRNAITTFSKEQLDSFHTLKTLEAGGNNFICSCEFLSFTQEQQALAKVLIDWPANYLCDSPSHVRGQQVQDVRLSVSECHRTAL

| Molecule | Kd (TLR4/MD2 complex) | Kd (MD2) | binding to TLR4 (in words) (TLR4) | Kd (rhMD2) | KD with RAGE (RAGE) | KD with TLR2 (TLR2) | activity in stimulating TNF-α release from differentiated THP-1 cells (THP-1 cells) |
| --- | --- | --- | --- | --- | --- | --- | --- |
| HMGB1: high mobility group box 1 protein, proinflammatory cytokine; literature binding data | 1500 nM | 8 nM | did not bind to TLR4 | – | – | – | – |
| rhCIRP: recombinant human CIRP, full length, C-terminal DDK tag, from HEK293 cells (Origene) (protein, left off: small tags and cut ends) MASDEGKLFVGGLSFDTNEQSLEQVFSKYGQISEVVVVKDRETQRSRGFGFVTFENIDDAKDAMMAMNGKSVDGRQIRVDQAGKSSDNRSRGYRGGSAGGRGFFRGGRGRGRGFSRGGGDRGYGGNRFESRSGGYGGSRDYYSSRSQSGGYSDRSSGGSYRDSYDSYATHNE | – | – | – | 302 nM | in the nM range | in the nM range | comparable activity to rmCIRP |
